Measured values reported in PMC10182041, “A first-in-class inhibitor of Hsp110 molecular chaperones of pathogenic fungi” (Nature Communications, 2023).

Molecular target: T1, Msi3, the sole Hsp110 of Candida albicans (Candida albicans, UniProt Q96VB9 1-701)
T1 construct: Msi3 (Hsp110) of Candida albicans; ORF amplified from genomic DNA and cloned into the pSMT3 vector; source: E. coli Rosetta2(DE3)pLysS, purified (HisTrap, Ulp1 cleavage, second HisTrap, HiTrap Q); not shown: His6, N-terminal, cleaved; Smt3, N-terminal, cleaved
T1 sequence (looked up): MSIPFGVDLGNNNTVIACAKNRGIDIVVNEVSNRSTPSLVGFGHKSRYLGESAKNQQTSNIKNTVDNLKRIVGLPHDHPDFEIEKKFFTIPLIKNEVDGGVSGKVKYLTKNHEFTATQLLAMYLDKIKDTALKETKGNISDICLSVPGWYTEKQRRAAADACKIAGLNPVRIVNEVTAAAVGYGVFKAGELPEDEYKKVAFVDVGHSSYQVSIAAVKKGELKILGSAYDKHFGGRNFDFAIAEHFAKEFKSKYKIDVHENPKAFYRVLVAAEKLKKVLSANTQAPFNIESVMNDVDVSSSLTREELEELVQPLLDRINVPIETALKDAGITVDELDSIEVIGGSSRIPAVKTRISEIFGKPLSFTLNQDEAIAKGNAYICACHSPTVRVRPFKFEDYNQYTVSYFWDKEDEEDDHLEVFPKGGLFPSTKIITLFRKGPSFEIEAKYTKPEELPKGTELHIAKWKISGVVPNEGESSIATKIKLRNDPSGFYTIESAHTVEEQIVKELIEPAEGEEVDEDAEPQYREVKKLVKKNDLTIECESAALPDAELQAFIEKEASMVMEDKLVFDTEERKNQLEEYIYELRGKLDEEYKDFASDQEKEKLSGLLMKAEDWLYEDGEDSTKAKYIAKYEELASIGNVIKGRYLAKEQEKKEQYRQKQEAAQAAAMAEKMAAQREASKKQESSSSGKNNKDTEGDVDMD
Assay: native gel or EMSA; Msi3 (5 uM) and Ssa1 (10 uM) mixed with 2 mM ATP in buffer D (25 mM Hepes-KOH pH 7.5, 50 mM KCl, 10 mM Mg(OAc)2, 1 mM DTT), 45 min on ice; 10% native gel, Coomassie; with or without 100 uM 2H
Conditions: both partners purified

B1: Ssa1, the major cytosolic Hsp70 of S. cerevisiae (natural protein)
chain: not shown
notes: Ssa1, Hsp70 from Saccharomyces cerevisiae; source: Pichia pastoris GS115, purified (HiTrap Q, butyl-Sepharose, ATP agarose)
binding result: binds
